Read-outs that look alike come from different tables or passages of the source.
B1: plasma factor X (protein)
chain 1: ANSFLEEMKKGHLERECMEETCSYEEAREVFEDSDKTNEFWNKYKDGDQCETSPCQNQGKCKDGLGEYTCTCLEGFEGKNCELFTRKLCSLDNGDCDQFCHEEQNSVVCSCARGYTLADNGKACIPTGPYPCGKQTLER
chain 2: SVAQATSSSGEAPDSITWKPYDAADLDPTENPFDLLDFNQTQPERGDNNLTRIVGGQECKDGECPWQALLINEENEGFCGGTILSEFYILTAAHCLYQAKRFKVRVGDRNTEQEEGGEAVHEVEVVIKHNRFTKETYDFDIAVLRLKTPITFRMNVAPACLPERDWAESTLMTQKTGIVSGFGRTHEKGRQSTRLKMLEVPYVDRNSCKLSSSFIITQNMFCAGYDTKQEDACQGDSGGPHVTRFKDTYFVTGIVSWGEGCARKGKYGIYTKVTAFLKWIDRSMKTRGLPKAKSHAPEVITSSPLK

Columns and labels:
thrombin [1] = system: thrombin
thrombin [2] = target: thrombin; remark: listed apart in the source

Molecule	appearance of FXa after incubation with thrombin (Pefachrome FXa8595 hydrolysis at 405 nm) (thrombin [1])	appearance of FXa after incubation with thrombin (Pefachrome FXa8595 hydrolysis at 405 nm) (thrombin [2])
FX-WT (human factor X from an optimized nucleotide sequence, with C-terminal HPC4 tag)	the plasma and WT FXs being negative since they do not have a thrombin recognition site	–
B1	–	the plasma and WT FXs being negative since they do not have a thrombin recognition site
